Measurements as given in the DeepSol protein solubility set.

Test: soluble on expression in E. coli; label from the status in PepcDB or PDB records
For “MVDLKRLRQEPEVFHRAIREKGVALDLEALLAVDEQLHKQQEVIADKQMSVKEDLDKVEPAVIEAQNAVKSIKKQHLVEVRSMANPPAAVKLALESIALLLGESTTDWKQIRSIIMRENFIPTIVNFSAEEISDAIREKMKKNYMSNPSYNYEIVNRASLAAGPMVKWAIAQLNYADMLKRVEPLRNELQKLEDDAKDNQQKLEALLLQVPLPPWPGAPVGGEEANREIKRVGGPPEFSFPPLDHVALMEKNGWWEPRISQVSGSRSYALKGDLALYELALLRFAMDFMARRGFLPMTLPSYAREKAFLGTGHFPAYRDQVWAIAETDLYLTGTAEVVLNALHSGEILPYEALPLRYAGYAPAFRSEAGSFGKDVRGLMRVHQFHKVEQYVLTEASLEASDRAFQELLENAEEILRLLELPYRLVEVATGDMGPGKWRQVDIEVYLPSEGRYRETHSCSALLDWQARRANLRYRDPEGRVRYAYTLNNTALATPRILAMLLENHQLQDGRVRVPQALIPYMGKEVLEPGAHHHHHH”, the “soluble on expression in E. coli” value was “soluble”. In the case of “MSTCPIDPPALRAAFAGPLDPQHAEVLLSRYDQHASRLLDALHALYGQRADYASWLAQWLGEVGDIARQRPQALQTLDSTRHAGWFGQPHMLGYSAYADRFAGTLQGVAERVPYLQELGVRYLHLLPFLRARAGDNDGGFAVSDYGQVEPSLGSNDDLVALTSRLREAGISLCADFVLNHTADDHAWAQAARAGDARYLDYYHHFADRTVPDRYEATLGQVFPHTAPGNFTWVDDTAQWMWTTFYPYQWDLNWSNPAVFGDMALAMLRLANLGVEAFRLDSTAYLWKRIGTDCMNQSEAHTLLVALRAVTDIVAPAVVMKAQAIVPMTQLPPYFGSGVDEGHECHLAYHSTLMAAGWSALALQRGDILHNVIAHSPPLPRHCAWLSYVRCHDDIGWNVLQHEACGNAAQPPFSLRDVARFYANAVPGSYARGESFQSSGDGVHGTNGMAAALAGIQAAQEAGDAAALAVAVDRLVLLYAIALAMPGVPLIYMGDELAMVNDPGYRDDPHRQHEGRWLHRPAMDWQLAAQRHDAKSLSGTVYRRLRGLIRQRAALGALAADQALASIALNDPRVFALTRGDSFIALHNFSDQLLDVELAAIGVDGWTLLAIDDAIGGAAARGDGSIVLPPYGVRWLQRGTEHAPE”, the “soluble on expression in E. coli” value is reported as “soluble”. For “MKAIISYETPLEQAHFTAKNDEKNMFYKENTEESVEGSLQYDVLDAVGEFKGQPGYIVCNNISVTDEGRPVFENRFKNRAGLIENEPGFQAIRVLRPLSNDTYVILTMWETEQNFKDWTESRSFENAHKKRPVQAEGQAPAHPHAEQQKSIFSRPSFVTTFDVLV”, the “soluble on expression in E. coli” value was “not soluble”. With “SNATAFVPALVASGLPNEKFCFEGFLPQKKGRMTKLKSLVDEHRTMVFYESPHRLLKTLTQFAEYFGPERQVSVSREISKIHEETVRGTLSELIEHFTATDPRGEIVIVLAGIDD” the “soluble on expression in E. coli” value was “soluble”. In the case of “GMSGDILNDIVAACLELERKASSVFKMFAAHAGSDEARRFWETVADETRHHSAVYERLQERGGRENLPIIIYKPAETLEELEMIGKSIDEQVERYTEAPSSEAACLLGFRLQLYLLHPAFASLCRLTRDASGEDLPDIGYGRYLRRFIDGIGSCGLATAETELLGEALFRLWNEARQLAAQSHFDALTGVMTRAGFFKTVGSLAYAAQRSGSNVGIMLIDLDYFKLVGDNYGHQTGDRILQLVAETITSHLRRSDVVGRYDGDEFVVYLSPVEPASLRTVAENLRRSIEEESARMVPVTASIGVAQGILGTDVDGGIEELVRLADECLMQAKYTGKNKVVVK”, the “soluble on expression in E. coli” value is reported as “soluble”. For “MSSHPPIRSYVLRQGYFSNAQRHAYESLLPRYGIPLTEEPVDLDSIFGRTAPGILEIGSGMGETTAEIARQHPEKDFIAIEVHAPGIGSLLGQIEKHRLTNLRIIPHDAKLVLQQMFTSESLDGIHIFFPDPWPKARHHKRRLIQPDFVSLLCDRLKPGGYLHIATDWEDYATHILHVLRSEERFVNTAVDYAARPAYRPLTKFEQRGMKLGHTIRDIIFTRTALEHHHHHH”, the “soluble on expression in E. coli” value was “not soluble”. In the case of “MSLELTVFSIGDWGEKTECLVNVTTKMGSLESAMNPKFIISVGDNFYQRGVKSVEDAAWTEILEEPFGKLSKHLKVHSCLGDHDWRGSTTAQIDRTNYANNTRWYLPGYWWYEKVTFTSEVSLPSLFEKSGLGEISANNSFHFNSSKTENSTSCEIDCLDEIVDNLNTMVNRNNSWNEDLSYKTSISEYFSEKQVNSTAVFIYIDSWTLTQDPFKKTSISYKYSQLEFIEQTLKAAVFENVDWIILVTHYSIYSSGLHGPHTRLASILMPLIKKYRVDFIISGHDHHSEILVPEDFNSYFQIVGASSKPRTSFGATDENSIFKSNTCSFASFTFSKDIAVSRIFSINSSLFSYFKRSNKFEREGHHHHHH”, the “soluble on expression in E. coli” value is reported as “not soluble”. In the case of “MGGSHHHHHHGMASALTDQTYCDRLVQDTPFLTGHGRLSEQQVDRIILQLNRYYPQILTNKEAEKFRNPKASLRVRLCDLLSHLQRSGERDCQEFYRALYIHAQPLHSRLPSRHALQNSDCTELDSGSQSGELSNRGPMSFLAGLGLAVGLALLLYCYPPDPKGLPGTRRVLGFSPVIIDRHVSRYLLAFLADDLGGL”, the “soluble on expression in E. coli” value is reported as “not soluble”. In the case of “MSQQKIGVLLVNLGTPEHPTAPAIRKFLKPFLADSRVIDYPKFLWKPILYSFILPFRPRKVKPLYQHVWTNEGSPLYANAIGQEKALQAHFDQSEHGVLVRATMAYSKPSISDVVDEFLKEKVAKMIVLPLFPQYSSTTTAAIFDAFAQSLKKKKDIPPFDFIHHYYERPSYIQALAQTIHLQENEHLLFSFHGIPQRYVIEGDYYTEHCQQTAQLIAVAAGLSEEQWQVSYQSRFGPEEWTRPYTDETLIQLPKQGKKKLAVICPGFAADCLETLEEIDITNRKHFMAAGGQAYRYIPALNASPAHIQLLAELISERL”, the “soluble on expression in E. coli” value is reported as “not soluble”. With “MGGLDKMSVEKKLLLDVKDLKVHFNITPKSAWPWTKPVTLKAVDGVNVRLYEGETLGVVGESGCGKSTFARAIIGLVQATHGEVVWLGQDLTRMQEVKRRATRKQIQMIFQDPLASLNPRMTVGDIIAEPLQTFYPELSKQEVKDRVKEMMAKVGLLPNVINRYPHEFSGGQCQRIGIARALILKPKMIICDEPVSALDVSIQAQVVNLLKELQKELGLSLVFIAHDLSVVKHISDRVLVMYLGNAVELGVSKELFANPKHPYTKALMSAVPIPDPNIERNKTIQMLEGDLPSPMNPPSGCVFRTRCPQATAECAKTKPVIKGSDIHSVSCLYAEA” the “soluble on expression in E. coli” value was “not soluble”. With “MMNKNKKLMVMAGGTGGHVFPGLAVAKQLQQQGWQIRWLGTADRMEAELVPKHGIEIDFIQVKGLRGQGLMRLLKAPFQIVNAILQARRHLLTYQPDAVLGMGGYVSGPGGIAAWLLGIPVVLHEQNAVAGLTNQWLAKIARRVFQAFPGAFADASVVGNPVRQDVVQLAAPEQRFATRNGAIRILVMGGSQGARILNQTLPAVMAALGEGYEIRHQAGKNSQQDVAEAYAAAGVESAQVTEFIDDVADAYAWADLLICRSGALTVSEVSAAGVGAIFIPFMHKDRQQALNADHLVACGAAKMIEQPELSVEKLTQMVRELDRAQLLSMAQKARQAAKLDADKVVAQAIIAITE” the “soluble on expression in E. coli” value was “not soluble”. With “MGSDKIHHHHHHMNPKKLKQLKKRVKKQAGAPYIQQLMKYRDLFKDDPQILVLINNVLESDRLLAAGLAPQQLPVLEIPDDFQDHLFERINQQYAMGDPAGDAAWNQLSAALPKVDQLLRNFRDYIEDQYGMWAYISAPFLKDLADFTGSAPVLEVMAGNGYISKGLKRLHPGQPIYTTDSKDWTHETGNQTGRHPVTTIEALDAVSAFNKYAATIKYVIMAWSPDKLTIDWDLLQAMRQSPYDIPLIVIGEKYGATGSKQFWDHANYQDNEAVTKLNAHFRPFDLIHDHVYVVR” the “soluble on expression in E. coli” value was “not soluble”. With “MMLITDTGVPERYIDTDEWGGEVMLRLDDGWCAALDRNTMMCTIYEKRPLICREFEAGAEDCLTERKGIATAYLLEHHHHHH” the “soluble on expression in E. coli” value was “not soluble”. In the case of “MPLLYLNTRECRWYLMGEGEMKKIAAISLISIFLISGCAVHNDETSIGKFGLAYKSNIQRKLDNQYYTEAEASLARGRISGAENIVKNDAAHFCVTQGKKMQIVDLKTEGAGLHGVARLTFKCGE”, the “soluble on expression in E. coli” value is reported as “not soluble”. In the case of “MGFFDSGIGGMTVLYEAIKVLPYEDYIFYADTLNVPYGEKSKGKVKEYIFNAAEFLASQNIKALVIACNTATSIAIEDLRRNFDFPIIGIEPAVKPAINKCTEERKRVLVVATNLTLKEEKFHNLVKEIDHHDLVDCLALPGLVEFAENFDFSEDKIIKYLKNELSSFDLKQYGTIVLGCTHFPFFKNSFEKLFGIKVDMISGSVGTAKQLKKVLADRNQLGKGSGSITFFNSGHKIVDQEVISKYKRLFEILDETQRSHVGH”, the “soluble on expression in E. coli” value is reported as “not soluble”. For “MSLKVLIKTDLVLGAPKTLRDVYIGIDEGQIKVISKEKPEDYDYAEYVIGGKNRVVAPGFVTTHSFLYLYPFRYRVFSGKANAFQLMSTLTPNDIYYFSLMGAYHLLKTGVTTVVTSGPNLDMIARAISEVGLRPVLAVGVDCPDSKEDWEREFTTLYNRWSSKNENRVILRLCSNEYSKEVFELSQQYDFPVLLERFVSLENISGNPINVIGLGGGARKDLDIIKQKGFHLASTPSYEVSQFPLSQYKPSISLDLSPTFDIRHEVSTSITRLILTPEEALNAMTIWGLLQLKYNDRGVLENGKVADLVIFEVKEPPTFPLDYESPYESIVFNLSTPETVLVSGEAILDGGVPLNIGIKHIEKAIERLEDIDKKVTEGHHHHHH”, the “soluble on expression in E. coli” value was “soluble”. With “MASIAIEYHSVVLGMERKVNVIYPDQSEIPKKDQGDKDIPVLYLLHGMGGNENSWQKRTAIERLLRHTNLIVVMPSTDLGWYTDTAYGLNYYRALSQELPQVLAAFFPNMTQKREKTFVAGLSMGGYGAFKWALKSNRFSYAASFSGALDFSPETLLEGKLGELAYWQGVFGQFDDPDLDKHYLKNMVAESDGKTKFYAWCGYEDFLFATNEKAIADFQAQGLDIDYHKGHGKHEWYYWNQQLEVLLEWLPINYQKEERLS” the “soluble on expression in E. coli” value was “not soluble”. With “MGSDKIHHHHHHMRLHSPSMSELHAFVAAARLGSFTRAADTLCVTQGAISRAIARLEEHFGQPLIQRNAHRLTLTGAGQQLLDAVAGPLAAIEHASAALRAGDRSHHLTLSAVPTLASVWLVPRLPDFHRRHPDIRLDFVPYRRDEDFSGAAPDAALLAGEPGKWPGLQVDYVVGREMVPVCHPDRARQRHAAGRWREPAELMDEPLLYHTTAPANWANWLQAAGVPNAAPKLSSGFDQVSILVQAVRADMGIAVLQRCLLHDELAAGRVVAPFDLPIRLQRGYFLCSPRERRDHHALRCFREWLLETAAQDSGT” the “soluble on expression in E. coli” value was “not soluble”. With “MEQQKKTTIVLFSGDYDKAMAAYIIANGAAAYDQEVTIFHTFWGLNALRKDEYVNVKKTFIEKVFGRMMPRGADKMGLSKMNFAGMGPKMIKGIMKKHNTMPLPDLIDLAKEQGIKLVACQMTVDLLGLKEEEIMEGVEFAGVGAYLADASDGNVNLFI” the “soluble on expression in E. coli” value was “not soluble”. In the case of “MTNNAVLQLRAERLARATRPFLARGNRVRRCQRCLLPLKSCLCDTLTPSQAKSRFCLVMFDTEPMKPSNTGRLIADILPDTAAFQWSRTEPPQALLELVQHPDYQPIVVFPASYAGEAREVISTPPAGKPPLFIMLDGTWPEARKMFRKSPYLDHLPVISVDLSRLSAYRLREIHAEGQYCTAEVAIALLDLAGDTEAATSLGEHFTRFKTRYLAGKTQHPGNVTALEHHHHHH”, the “soluble on expression in E. coli” value is reported as “soluble”. For “MFQLSVQDIHPGEKAGDKEEAIRQVAAALVQAGNVAEGYVNGMLAREQQTSTFLGNGIAIPHGTTDTRDQVLKTGVQVFQFPEGVTWGDGQVAYVAIGIAASSDEHLGLLRQLTHVLSDDSVAEQLKSATTAEELRALLMGEKQSEQLKLDNEMLTLDIVASDLLTLQALNAARLKEAGAVDATFVTKAINEQPLNLGQGIWLSDSAEGNLRSAIAVSRAANAFDVDGETAAMLVSVAMNDDQPIAVLKRLADLLLDNKADRLLKADAATLLALLTSDDAPTDDVLSAEFVVRNEHGLHARPGTMLVNTIKQFNSDITVTNLDGTGKPANGRSLMKVVALGVKKGHRLRFTAQGADAEQALKAIGDAIAAGLGEGA”, the “soluble on expression in E. coli” value was “soluble”.
